Data as given in paper PMC5490839 (Nature immunology, 2016).
Where no end group is shown, it is not given here. The star is where a group is joined. Maleimide‑PEG2‑Biotin = EZ Link Maleimide-PEG2-Biotin, O=C(CCCC[C@@H]1SC[C@@H]2NC(=O)N[C@@H]21)NCCOCCOCCNC(=O)CCN1C(=O)CC(*)C1=O

T1: Zap70 K369A (full length) (human, UniProt P43403 1-619, K369A)
T1 sequence (looked up): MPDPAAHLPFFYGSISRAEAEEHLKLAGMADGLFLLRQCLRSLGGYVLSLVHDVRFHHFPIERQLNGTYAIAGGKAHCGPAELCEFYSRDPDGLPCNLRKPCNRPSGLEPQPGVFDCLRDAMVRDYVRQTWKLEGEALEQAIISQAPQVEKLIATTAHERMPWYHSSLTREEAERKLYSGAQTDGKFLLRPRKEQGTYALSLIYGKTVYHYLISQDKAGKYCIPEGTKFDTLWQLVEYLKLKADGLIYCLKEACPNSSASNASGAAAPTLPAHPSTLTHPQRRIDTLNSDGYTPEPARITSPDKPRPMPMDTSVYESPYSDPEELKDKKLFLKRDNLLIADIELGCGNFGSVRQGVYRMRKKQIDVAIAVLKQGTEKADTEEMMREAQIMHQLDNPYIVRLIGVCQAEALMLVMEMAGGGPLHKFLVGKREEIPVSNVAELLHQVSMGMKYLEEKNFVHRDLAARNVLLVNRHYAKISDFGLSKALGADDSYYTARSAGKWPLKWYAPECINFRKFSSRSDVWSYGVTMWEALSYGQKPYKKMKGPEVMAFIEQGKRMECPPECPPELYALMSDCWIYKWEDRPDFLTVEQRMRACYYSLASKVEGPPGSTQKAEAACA

T2: Zap70 D461N (full length, kinase-inactive) (human, UniProt P43403 1-619, D461N)
T2 sequence (looked up): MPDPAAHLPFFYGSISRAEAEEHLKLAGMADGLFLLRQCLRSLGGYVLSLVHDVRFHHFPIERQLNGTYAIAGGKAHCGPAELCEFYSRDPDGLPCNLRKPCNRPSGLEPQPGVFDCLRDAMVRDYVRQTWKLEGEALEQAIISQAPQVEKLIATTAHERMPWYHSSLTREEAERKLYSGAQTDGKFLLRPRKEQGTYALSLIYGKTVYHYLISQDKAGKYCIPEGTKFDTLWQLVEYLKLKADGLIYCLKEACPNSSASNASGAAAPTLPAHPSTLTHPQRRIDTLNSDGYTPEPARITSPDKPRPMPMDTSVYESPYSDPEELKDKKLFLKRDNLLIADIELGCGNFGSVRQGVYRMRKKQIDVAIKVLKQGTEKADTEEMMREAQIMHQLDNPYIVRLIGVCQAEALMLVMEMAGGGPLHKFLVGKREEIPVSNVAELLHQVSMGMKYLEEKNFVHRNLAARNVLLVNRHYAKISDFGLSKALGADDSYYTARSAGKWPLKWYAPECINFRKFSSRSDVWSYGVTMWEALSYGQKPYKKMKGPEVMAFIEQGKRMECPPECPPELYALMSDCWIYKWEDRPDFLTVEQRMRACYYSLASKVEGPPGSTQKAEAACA

T3: Zap70 K369R (full length) (human, UniProt P43403 1-619, K369R)
T3 sequence (looked up): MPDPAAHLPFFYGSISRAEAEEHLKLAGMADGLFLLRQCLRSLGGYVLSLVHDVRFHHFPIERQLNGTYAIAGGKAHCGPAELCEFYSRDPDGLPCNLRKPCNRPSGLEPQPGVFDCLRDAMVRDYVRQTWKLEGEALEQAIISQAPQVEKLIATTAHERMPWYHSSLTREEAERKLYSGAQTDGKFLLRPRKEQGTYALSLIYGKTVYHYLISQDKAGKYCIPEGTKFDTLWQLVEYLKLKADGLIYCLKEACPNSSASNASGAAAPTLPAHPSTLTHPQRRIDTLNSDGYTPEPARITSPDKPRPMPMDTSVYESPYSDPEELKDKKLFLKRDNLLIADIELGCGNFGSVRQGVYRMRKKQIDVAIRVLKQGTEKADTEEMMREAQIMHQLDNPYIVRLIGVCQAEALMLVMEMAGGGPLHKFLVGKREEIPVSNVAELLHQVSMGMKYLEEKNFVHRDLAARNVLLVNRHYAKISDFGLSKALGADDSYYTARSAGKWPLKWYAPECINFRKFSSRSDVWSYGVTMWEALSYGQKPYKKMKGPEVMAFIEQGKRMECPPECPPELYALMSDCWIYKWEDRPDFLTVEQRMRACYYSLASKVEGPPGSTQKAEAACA

T4: wild-type Zap70 (full-length human Zap70) (human, UniProt P43403 1-619)
T4 sequence (looked up): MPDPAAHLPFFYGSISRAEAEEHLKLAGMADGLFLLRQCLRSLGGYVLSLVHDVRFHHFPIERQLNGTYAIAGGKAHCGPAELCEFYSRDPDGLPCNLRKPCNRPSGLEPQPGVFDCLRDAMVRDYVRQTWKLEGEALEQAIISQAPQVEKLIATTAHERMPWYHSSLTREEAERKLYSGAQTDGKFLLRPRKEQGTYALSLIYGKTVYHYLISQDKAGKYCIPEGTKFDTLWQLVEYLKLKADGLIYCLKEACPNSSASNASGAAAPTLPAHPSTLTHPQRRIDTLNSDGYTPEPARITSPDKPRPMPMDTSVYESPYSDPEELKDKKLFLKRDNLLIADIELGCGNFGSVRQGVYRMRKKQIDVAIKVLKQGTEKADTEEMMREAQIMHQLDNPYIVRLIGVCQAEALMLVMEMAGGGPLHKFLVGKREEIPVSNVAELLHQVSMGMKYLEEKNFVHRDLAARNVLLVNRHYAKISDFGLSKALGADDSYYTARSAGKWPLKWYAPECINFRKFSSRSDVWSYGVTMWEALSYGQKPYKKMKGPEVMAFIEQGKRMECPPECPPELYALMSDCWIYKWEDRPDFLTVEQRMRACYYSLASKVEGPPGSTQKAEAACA


Assays:
[1] = target: T1, Zap70 K369A (full length); assay: ELISA
[2] = target: T2, Zap70 D461N (full length, …); assay: ELISA
[3] = target: T3, Zap70 K369R (full length); assay: ELISA
[4] = target: T4, wild-type Zap70 (full-length human …); assay: ELISA
[5] = target: T1, Zap70 K369A (full length); assay: BLI
[6] = target: T4, wild-type Zap70 (full-length human …); assay: BLI
[7] = target: T2, Zap70 D461N (full length, …); assay: BLI
[8] = target: T3, Zap70 K369R (full length); assay: BLI

| binding result [5] | binding result [6] | binding result [7] | binding result [8] | Binder | binding result [1] | binding result [2] | binding result [3] | binding result [4] |
| --- | --- | --- | --- | --- | --- | --- | --- | --- |
|  |  |  |  | GGAGQDGVRQSRASDKQTLLPNDQLYQPLKDREDDQYSHLQGNQLRRN (domain or fragment, also: ITAM phosphorylated by Lck, sites not given here, GST fusion) | binds | binds | binds | binds |
| binds | binds | binds | binds | C(Maleimide‑PEG2‑Biotin)AGQDGVRQSRASDKQTLLPNDQLYQPLKDREDDQYSHLQGNQLRRN (domain or fragment, also: ITAM phosphorylated by Lck, sites not given here) [bio-phosphorylated CD3γ^CD (biotinylated, phosphorylated cysCD3γ^CD, human CD3γ amino acids 137-182)] |  |  |  |  |
